Reference: paper PMC7797058, “Characterization of the first tetrameric transcription factor of the GntR superfamily with allosteric regulation from the bacterial pathogen Agrobacterium fabrum” (Nucleic Acids Research, 2020)

Target: T1, Atu1419-H3A H141A;H192A;H214A (Agrobacterium fabrum C58) (UniProt A9CJ36)
T1 sequence: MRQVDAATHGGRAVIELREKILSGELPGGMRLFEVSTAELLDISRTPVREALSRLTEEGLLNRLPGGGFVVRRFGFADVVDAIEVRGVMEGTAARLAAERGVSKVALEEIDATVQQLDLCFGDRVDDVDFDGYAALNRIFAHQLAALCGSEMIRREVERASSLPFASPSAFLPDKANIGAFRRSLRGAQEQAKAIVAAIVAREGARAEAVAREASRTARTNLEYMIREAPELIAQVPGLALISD
Experiment: EMSA
Details: EMSA: 50 mM Tris-HCl pH 8, 150 mM NaCl, 30 nM DNA, 30 min at room temperature; gel 6% or 12% PAGE in TBE at 4 C

With “AAGCGCCTGAACTGATTGCGCAGGTTCCGGGTCTCGCACTCATCAGCGACTAAGCGGCGGAAATCGCTGCAAATCCAGGGGTGGCGCCTTTTGGCGCCGCCTTTATTTTTGTCGACACCCTCCCTGACGCGGTAATTTTGCGCTTGCAATTTATCAAAGCACAGCGTTTCATGTATACATAGATGCGATTGCCAGGGAGGAGATGACAATGGCAAATTCCAGTCTGACCGAGGTTTTGAAGCAATATCCGAACCCCGTTGAAATGCTC (double strand) [Patu1420]” the binding was “binds”.
